Test results reported in US20130244253A1.

Target: TGF-β receptors on cultured rat primary hepatic stellate cells
Test: cell-based or functional assay

“purified recombinant NS3 protein (scNS4A-NS3 protease with trx-His-S tag) (enzyme)” gave an expression of the Collagen(I) α1 gene in cultured rat primary hepatic stellate cells of 6 times.
